This is an account of results in the RNAGym collection of RNA variant scans (doi:10.1073/pnas.2313332121).

This sample holds only a part of the variants without activity.

Sequences and labels used below:
B1: TPR 5TU (parent)
chain: GGAUCUUCUCGAUCUAACAAAAAAGACAAAUCUGCCACAAAGCUUGAGAGCAUCUUCGGAUGCAGAGGCGGCAGCCUUCGGUGGCGCGAUAGCGCCAACGUUCUCAACUAUGACACGCAAAACGCGUGCUCCGUUGAAUGGAGUUUAUCAUG

In the data set the parent is B1. Description: polymerase ribozyme fitness, log enrichment relative to wild type (log ratio); higher = more active; in vitro selection for triplet polymerase activity. In outline: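 Mutant libraries of each subunit of a heterodimeric triplet polymerase ribozyme were built by PCR and transcribed. Each library went through one round of in vitro selection in triplicate: annealing with biotinylated primer, partner subunit and triplets, frozen incubation at −7 °C, gel excision of extended constructs, streptavidin-bead capture and RT-PCR. Input and output libraries were Illumina-sequenced; only genotypes with ≥10 input reads and ≥1 read per output were kept. Fitness is log2(genotype enrichment/wild-type enrichment), using inverse-variance-weighted replicate averages.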
With GGAUCUUCUCGAUCUAACAAAAAAGACAAAUCUGCCACAAAGCUUGAGAGCAUCUACGGAUGCAGAGGCGGCAGCCUUCGGUGGGGCGAUAGCGCCAACGUUCUCAACUAUGACACGCAAAACGCGUGCUCCGUUGAAUGGAGUUUAUCAUG, the “polymerase ribozyme fitness (log ratio)” value is -2.44.

In the case of GGUUCUUCUCGAUCUAACAAAAAAGACAAAUCUGCUACAAAGCUUGAGAGCAUCUGCGGCGGCAGAGGCGGCAGCCUUUGGUGGCGCGAUAGUGCCAAUGUUCUCAACUAUCACACGCAAAACGCGUGCUCCGUUGAAUGGAGAUUAUCCUG, the “polymerase ribozyme fitness (log ratio)” value was at most -4.2. Regarding GGAUCUUCUCGAUCUAACAAAAAAGACAAAUCUGCCACAAAGCUUGAGAGCAUCUUCCGAUGCAGAGGCGGCAGCCUUCGGUGGCGCGAUAGUGCCAACGUUCUCAACUAUGACACGCAAAACGCGUGCUCCGUUGAAUGGAGUUUAUCAUG, the “polymerase ribozyme fitness (log ratio)” value was -1.71.

GGAUCUUCUCGAUCUAACAAAAAAGUCAAAUCUGCCACAAAGCUUUAGAGCAUCUUCAGAUGCAGAGGCGGCUGCCUUCGGUGGGGCGAUAGCGCCAACGUUCUCAACUAGGACACGCAAAACGCGUGCUCCGUUGAAUGGAGUUUAUCUUG: the “polymerase ribozyme fitness (log ratio)” value was at most -4.2.

Regarding GGAUCUUCUCGAUCUAACAAAAAAGACAAAUCUGCCACGAAGCUUGAAAGCAUAUUCGGAUGCAGAGGCGGCAGCCUUCGGUGGCGCAAUAGCGCCAACGUUCUCAACUAUGACACGCAAAACGUGUGCUCCGGUGAAUGGAGUCUAUCAUG, the “polymerase ribozyme fitness (log ratio)” value is at most -4.2. Then GGAUCUUCUCGAUCUAACCAAAAAGACAAAUCUGCCACAAAGCUUGAGAGCAACUUCGGAUGCAGAGGCGGCAGCCUUCGGUGGCGCGAUAACGCCAACGUUCUCAACUAUGACACGCAAAACGCGUGCUCCGUUGAAUGGAGUUUAUCAUG, with -3.8.

Take GGAUCUUCUCGAUCUUACAAACAAGAAAAAUCUGCCACAAAGCUUGAGAGCAUCUUCGGAUGCAGAGGCGGCAGCCUUCGGUGGCGCGAUAGCGCCAACGUUCUCAACUAUGACACGCAAAACGAGUGCUCCGUUGAAUGGAGUUUAUCGUG: the “polymerase ribozyme fitness (log ratio)” value is at most -4.2. On to GGAUCUUCUCGAUCUAACAAAAAAGACAAAUCUGCCACCAAGCUUGAGAGCAUCUUCACAUGCAGAGGCGGCAGCCUUCGGUGGCGCGAUAGCGCCAACGUUCUCAACUAUGACACGCAAAACGCGUGCUCCGUUGAAUGGAGUUUAUCAUG, for which the “polymerase ribozyme fitness (log ratio)” value was -1.49. As for GGAUCUUCUCGAUCUAACAAAAAAGACAAAUCUGCCACAAAGCUUGAGAGCAUCUUCGGAUGCAGAGGCGGCAGCCUUCGGUGGCGCGUUAGCGCCAAGGUUCUCAACUAUGACACGCAAAACGCAUGCUCGGUUGAAUGGAGUUUAUCAUG, the figure is -4.08; as for GGAUCUUCUCGAGCUAACAAAAAAGACAAAUCUGCCACAAAACUUGAGAUCAUCUUCGGAUGCAGAGGCGGCAGCAUUCGGUGGCCCGAUAGCGCCAACGUUCUCAACUAUGACACGCAAAACGCGUGCUCAGUUGAAUGGAGUUUAUCAUG, at most -4.2. As for GGAUCUUCUCGAUCUAACAAAAAAGACAAAUCUGCCACAAAGCUUGAGAGCAUCUUCGGAUGCAGAGGCGGCAGCCUUCGGUGGCGCGAUCGCGCCAACGUUCUCAACUAUGACACGCAAAACGCGUGCUCCGUUGAAUGGCGUUUAUCAUG, the “polymerase ribozyme fitness (log ratio)” value was at most -4.2. As for GGAUCUUCUCGAUCUAACAAAAAAGACAAAUCUGCCACAAAGCUUGAGAACAUCUUAGGAUGCAGAGGCGGCAGCCUUCGGUGGCGCGAUAGCGCCAAAGUUCUCAACUAUGACACGCAAAACGCGUGCUCCGUUGAAUGGAGUUUAUCAUG, the figure is -2.67. Then GGAUCUUCUCGAUCUAACAAAAAAGACAAAUCUGCCACAAAGCUUGAGAGCAUCUUCGGAUGCAGAGGCGGCAGCCUUCGGUGGCGCGAUAGCGCCAACGUUCUCAACUAUGACACGCAAAACGCGUGCUCCGUUGAAUGGAGUUUAUCCUG, with -2.71. On to GGAUCUUCUCGAUCUAACAAAAAAGACAAAUCUGCCACAAUGCUUGAGAGCAUCUUCGGAUGCAGAGGCGGCAGCCUUCGGUGGGGCGAUAGCGCCAACGUUCUCAACUAUGACACGCAAAACGCGUGCUCCGUUGAAUGGAGUUUAUCAUG, for which the “polymerase ribozyme fitness (log ratio)” value is -2.37. For the variant GGAUCUUCUCGAUCUAACAAAUAAGACAAAUCUGCCACAAAGCUUGAGAGCAUCUUAGGAUGCAGAGGCGGCAGCCUUCGGUGGCGCGAUAGCGCGUACGUUCUCAACUAUGACACGGCAAACGCGUGCUCCGUUGAAUGGAGUUUAUCAUG, the “polymerase ribozyme fitness (log ratio)” value was -2.85. Then GGAUCUUCUCGAUCUCACAAAAAGGACAAAUCUGCCACAAAGCUUGAGAGCAUCUCCGGAUGCAGAGGCGGCAGCCCUCGGUGGCACGAUAGCGCCAACGUUCGCAACUAUGACACGCAAAACGCGUGCUCCGUUGAAAGGGGUUUAUCAUG, with at most -4.2. As for GGAUCUUCUCGAUCUAACAAAAAAGACAAAUCUGCCACAAAGCUUGAGAACAUCUUCGGAUGCAGAGGCGGCAGCCUUCGGUGGCGCGAUAGCGCCGACGUUCUCAACUAUGACACGCAAAACGCGUGCUCCGUUGACUGGAGUUUAUCAUG, the figure is -4.01; as for GGAUCUUCUCGAUCUAACAAAAAAGACAAAUCUGCCACAGAGCUUGAGAGCAUCUUCGGAUGCAGAGGCGGCAGCCUUCGGUGGCGUGAUAGCGCCAACGUUCUCAACUAUGACACGCAAAACGCGUGCUCCGUUGAAUGGAGUUUAUCAUG, -1.53; as for GGAUCUUCUCGAUCUAACAAAAAAGACAAAUCUGCCACAAAGCUUGAGAGCAUCUUCGGAUGCAGAGGCGGCAGCCUUCGGUGGUGCGGUAGCGCCAACGUUCUCAACUAUGACACGCAAAACGCGUGCUCCGUUGAAUGGAGUUUAUCAUG, -2.67.
